# Laboratory results taken from patent US20110123544A1 (published 2011).
# T1: recombinant human interleukin 12 (p40/p35 heterodimer) (human, UniProt P29460 23-328; P29459 23-219)
# T1 chain 1: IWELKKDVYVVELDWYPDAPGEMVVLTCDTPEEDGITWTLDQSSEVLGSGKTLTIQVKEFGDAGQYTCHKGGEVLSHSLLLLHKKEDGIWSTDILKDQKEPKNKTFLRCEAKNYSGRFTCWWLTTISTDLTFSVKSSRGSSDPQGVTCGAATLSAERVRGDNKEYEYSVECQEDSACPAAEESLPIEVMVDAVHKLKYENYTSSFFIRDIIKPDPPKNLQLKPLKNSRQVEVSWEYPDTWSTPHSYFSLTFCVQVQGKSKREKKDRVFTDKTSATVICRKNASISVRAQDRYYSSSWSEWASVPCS
# T1 chain 2: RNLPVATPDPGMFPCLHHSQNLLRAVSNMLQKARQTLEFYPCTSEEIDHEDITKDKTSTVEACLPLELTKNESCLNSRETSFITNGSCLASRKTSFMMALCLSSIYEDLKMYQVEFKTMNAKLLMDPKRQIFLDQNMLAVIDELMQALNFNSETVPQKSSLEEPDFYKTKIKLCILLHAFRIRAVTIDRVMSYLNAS
# Biological target: T1, recombinant human interleukin 12 …
# Test: BIAcore
row,koff [s⁻¹],Binder
1,0.000191,FTFSNYGMH [Y61 H31 N]
2,0.000716,FTFSTYGMH [Y61 H31 T]
3,0.000296,FTFHSYGMH [Y61 H30 H]
4,0.00148,FTFSSTGMH [Y61 H32 T]
5,0.00161,FTFSSIGMH [Y61 H32 I]
6,0.000664,FTFSRYGMH [Y61 H31 R]
7,0.000398,FTFSYYGMH [Y61 H31 Y]
8,0.00229,FTFSSEGMH [Y61 H32 E]
9,0.00134,FTFSSVGMH [Y61 H32 V]
10,0.00189,FTFSSYEMH [Y61 H33 E]
11,0.00191,FTFSSYVMH [Y61 H33 V]
12,0.00383,FTFSSCGMH [Y61 H32 C]
13,0.000309,FTFSHYGMH [Y61 H31 H]
14,0.000399,FTFSSYSMH [Y61 H33 S]
15,0.0025,FTFSSYIMH [Y61 H33 I]
16,0.000228,FTFESYGMH [Y61 H30 E]
17,0.00166,FTFSSAGMH [Y61 H32 A]

row,koff [s⁻¹],Binder
1,0.000215,FTFSSYMMH [Y61 H33 M]
2,0.000245,FTFRSYGMH [Y61 H30 R]
3,0.000461,FTFSSHGMH [Y61 H32 H]
4,0.000205,FTFSAYGMH [Y61 H31 A]
5,0.00152,FTFSSYDMH [Y61 H33 D]
6,0.000319,FTFYSYGMH [Y61 H30 Y]
7,0.000301,FTFNSYGMH [Y61 H30 N]
8,0.000152,FTFSQYGMH [Y61 H31 Q]
9,0.00158,FTFSSSGMH [Y61 H32 S]
10,0.00449,FTFSSRGMH [Y61 H32 R]
11,0.0025,FTFSSYYMH [Y61 H33 Y]
12,0.00226,FTFSSLGMH [Y61 H32 L]
13,0.00297,FTFSSNGMH [Y61 H32 N]
14,0.00286,FTFSSYCMH [Y61 H33 C]
15,0.00012,FTFSCYGMH [Y61 H31 C]
16,0.000219,FTFSEYGMH [Y61 H31 E]
17,0.000225,FTFKSYGMH [Y61 H30 K]

# Biological target: T1, recombinant human interleukin 12 …
# Test: BIAcore
# Remark: another data set of the same source
row,koff [s⁻¹],Binder
1,0.00208,HGIHDN [Y61 H97 I]
2,0.000382,HVSHDN [Y61 H96 V]
3,0.00186,HTSHDN [Y61 H96 T]
4,0.00147,LGSHDN [Y61 H95 L]
5,0.00514,FGSHDN [Y61 H95 F]
6,0.00327,HGSHHN [Y61 H101 H]
7,0.00191,HGHHDN [Y61 H97 H]
8,0.00261,HLSHDN [Y61 H96 L]
9,0.000449,HGSHSN [Y61 H101 S]
10,0.00204,HMSHDN [Y61 H96 M]
11,0.0011,HGSHRN [Y61 H101 R]
12,0.00221,HGNHDN [Y61 H97 N]
13,0.000343,HGSIDN [Y61 H98 I]
14,0.003,HGPHDN [Y61 H97 P]
15,0.00229,HGGHDN [Y61 H97 G]
16,0.000293,HGSVDN [Y61 H98 V]
17,0.000962,HRSHDN [Y61 H96 R]
18,0.000588,HGTHDN [Y61 H97 T]
19,0.00197,HWSHDN [Y61 H96 W]
20,0.00208,HISHDN [Y61 H96 I]

row,koff [s⁻¹],Binder
1,0.00224,HDSHDN [Y61 H96 D]
2,0.00273,HGYHDN [Y61 H97 Y]
3,0.00228,KGSHDN [Y61 H95 K]
4,0.000673,HGSADN [Y61 H98 A]
5,0.00034,HGSRDN [Y61 H98 R]
6,0.000242,HCSHDN [Y61 H96 C]
7,0.00129,HPSHDN [Y61 H96 P]
8,0.000237,HHSHDN [Y61 H96 H]
9,0.00193,SGSHDN [Y61 H95 S]
10,0.00143,HGAHDN [Y61 H97 A]
11,0.000598,HGSLDN [Y61 H98 L]
12,0.0018,HGFHDN [Y61 H97 F]
13,0.000227,HGSTDN [Y61 H98 T]
14,0.00465,HGSHYN [Y61 H101 Y]
15,0.00471,PGSHDN [Y61 H95 P]
16,0.0015,AGSHDN [Y61 H95 A]
17,0.000859,QGSHDN [Y61 H95 Q]
18,0.00202,TGSHDN [Y61 H95 T]
19,0.00231,EGSHDN [Y61 H95 E]
20,0.00202,HGDHDN [Y61 H97 D]
